*1 amine or outer side, *2 acyl side, *3 side chain or, on linkers, in order; H or OH if unused. Where no end group is shown, it is not given here. Side-chain parts run from the residue outwards. [ ]: non-standard residue; d: D form. The star is where a group is joined. C20 diacid = O=C(O)CCCCCCCCCCCCCCCCCCC(=O)*; αMePhe(2-F) = C[C@](N)(Cc1ccccc1F)C(=O)O; γGlu = O=C(O)[C@H](CCC(=O)[*:2])N[*:1]; AEEA = NCCOCCOCC(=O)O; Aib = CC(C)(N)C(=O)O
How the values were obtained:
human glucagon receptor [1] = molecular target: T1, human glucagon receptor (human, UniProt P47871 26-477); test: radioligand competition SPA, membranes of HEK293 cells overexpressing human GcgR
T1 construct: whole, on cells; cAMP assays used the whole cells; also called GcgR; hGcgR
Protocol: (§1) Radioligand competition binding assays are run to determine the equilibrium dissociation constant for Example compounds and comparator molecules.
(§2) The assays are performed in the presence of bacitracin as a non-specific blocking agent to prevent acylated moieties of test analogs from binding to protein components used in standard assay buffers (e.g., albumin).
(§3) Competition curves are plotted as the percent specific inhibition (y-axis) versus log concentration of compound (x-axis) and analyzed using a four parameter nonlinear regression fit with variable slope (ABase or Genedata).

human glucagon receptor [2] = molecular target: T1, human glucagon receptor; test: cell-based or functional assay
human GLP-1 receptor [3] = molecular target: T2, human GLP-1 receptor (human, UniProt P43220 24-463); test: cell-based or functional assay
human GIP receptor [4] = molecular target: T3, human GIP receptor (human, UniProt P48546 22-466); test: cell-based or functional assay
T3 sequence (looked up): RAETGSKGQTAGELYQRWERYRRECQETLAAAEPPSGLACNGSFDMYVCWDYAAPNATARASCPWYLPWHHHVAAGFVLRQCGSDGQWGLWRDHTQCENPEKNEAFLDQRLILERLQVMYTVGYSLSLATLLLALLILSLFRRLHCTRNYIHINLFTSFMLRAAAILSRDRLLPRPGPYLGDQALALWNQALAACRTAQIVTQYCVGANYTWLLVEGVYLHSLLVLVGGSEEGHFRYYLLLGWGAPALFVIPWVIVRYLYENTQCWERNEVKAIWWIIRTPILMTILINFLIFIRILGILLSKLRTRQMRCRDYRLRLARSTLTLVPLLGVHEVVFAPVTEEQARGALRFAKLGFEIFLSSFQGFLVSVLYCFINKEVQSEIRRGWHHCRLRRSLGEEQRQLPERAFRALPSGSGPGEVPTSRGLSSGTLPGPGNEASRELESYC

human GIP receptor [5] = molecular target: T3, human GIP receptor; test: radioligand competition SPA, membranes of HEK293 cells overexpressing human GIPR
Protocol: as §1, §2, §3

human GLP-1 receptor [6] = molecular target: T2, human GLP-1 receptor; test: radioligand competition SPA, membranes of HEK293 cells overexpressing human GLP-1R
Protocol: as §1, §2, §3

human glucagon receptor [7] = molecular target: T1, human glucagon receptor; test: cell-based or functional assay; remark: listed apart in the source
human GLP-1 receptor [8] = molecular target: T2, human GLP-1 receptor; test: cell-based or functional assay; remark: listed apart in the source
human GIP receptor [9] = molecular target: T3, human GIP receptor; test: cell-based or functional assay; remark: listed apart in the source

T1 sequence (P47871 26-477): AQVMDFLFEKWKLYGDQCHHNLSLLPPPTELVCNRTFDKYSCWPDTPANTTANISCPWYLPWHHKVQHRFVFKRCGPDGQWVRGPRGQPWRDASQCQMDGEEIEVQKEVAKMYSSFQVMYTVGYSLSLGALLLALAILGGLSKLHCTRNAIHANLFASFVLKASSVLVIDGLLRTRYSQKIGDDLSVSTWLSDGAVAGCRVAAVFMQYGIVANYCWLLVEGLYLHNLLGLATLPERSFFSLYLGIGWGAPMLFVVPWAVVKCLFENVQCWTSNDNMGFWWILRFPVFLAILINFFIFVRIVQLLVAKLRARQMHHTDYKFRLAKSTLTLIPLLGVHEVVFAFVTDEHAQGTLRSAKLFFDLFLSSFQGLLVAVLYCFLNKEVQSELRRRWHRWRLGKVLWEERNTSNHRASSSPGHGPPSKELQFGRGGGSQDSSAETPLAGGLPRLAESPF

B1: Example 5 (peptide)
peptide: Y[Aib]QGT[αMePhe(2-F)]TSDYSILLDKK([AEEA-γGlu-C20 diacid])AQQAFIEYLLEGGPSSGAPPPS-NH2
modifications: N-terminus assumed
SMILES: CC[C@H](C)[C@H](NC(=O)[C@H](Cc1ccccc1)NC(=O)[C@H](C)NC(=O)[C@H](CCC(N)=O)NC(=O)[C@H](CCC(N)=O)NC(=O)[C@H](C)NC(=O)[C@H](CCCCNC(=O)COCCOCCNC(=O)CC[C@H](NC(=O)CCCCCCCCCCCCCCCCCCC(=O)O)C(=O)O)NC(=O)[C@H](CCCCN)NC(=O)[C@H](CC(=O)O)NC(=O)[C@H](CC(C)C)NC(=O)[C@H](CC(C)C)NC(=O)[C@@H](NC(=O)[C@H](CO)NC(=O)[C@H](Cc1ccc(O)cc1)NC(=O)[C@H](CC(=O)O)NC(=O)[C@H](CO)NC(=O)[C@@H](NC(=O)[C@](C)(Cc1ccccc1F)NC(=O)[C@@H](NC(=O)CNC(=O)[C@H](CCC(N)=O)NC(=O)C(C)(C)NC(=O)[C@@H](N)Cc1ccc(O)cc1)[C@@H](C)O)[C@@H](C)O)[C@@H](C)CC)C(=O)N[C@@H](CCC(=O)O)C(=O)N[C@@H](Cc1ccc(O)cc1)C(=O)N[C@@H](CC(C)C)C(=O)N[C@@H](CC(C)C)C(=O)N[C@@H](CCC(=O)O)C(=O)NCC(=O)NCC(=O)N1CCC[C@H]1C(=O)N[C@@H](CO)C(=O)N[C@@H](CO)C(=O)NCC(=O)N[C@@H](C)C(=O)N1CCC[C@H]1C(=O)N1CCC[C@H]1C(=O)N1CCC[C@H]1C(=O)N[C@@H](CO)C(N)=O
notes: Synthetic acylated peptide
Ki (human glucagon receptor [1]): 0.419 nM
cAMP EC50, in the presence of FBS and BSA (human glucagon receptor [2]): 1.87 nM
cAMP EC50, in the presence of FBS and BSA (human GLP-1 receptor [3]): 13 nM
cAMP EC50, in the presence of FBS and BSA (human GIP receptor [4]): 1.91 nM
Ki (human GIP receptor [5]): 0.0347 nM
Ki (human GLP-1 receptor [6]): 1.17 nM
cAMP EC50, in the presence of 0.1% casein (human glucagon receptor [7]): 0.0343 nM
cAMP EC50, in the presence of 0.1% casein (human GLP-1 receptor [8]): 0.103 nM
cAMP EC50, in the presence of 0.1% casein (human GIP receptor [9]): 0.0306 nM

B2: Example 6 (peptide)
peptide: Y[Aib]QGT[αMePhe(2-F)]TSDYSILLDKK([AEEA-γGlu-C20 diacid])AQHAFIEYLLEGGPSSGAPPPS-NH2
modifications: N-terminus assumed
SMILES: CC[C@H](C)[C@H](NC(=O)[C@H](Cc1ccccc1)NC(=O)[C@H](C)NC(=O)[C@H](Cc1c[nH]cn1)NC(=O)[C@H](CCC(N)=O)NC(=O)[C@H](C)NC(=O)[C@H](CCCCNC(=O)COCCOCCNC(=O)CC[C@H](NC(=O)CCCCCCCCCCCCCCCCCCC(=O)O)C(=O)O)NC(=O)[C@H](CCCCN)NC(=O)[C@H](CC(=O)O)NC(=O)[C@H](CC(C)C)NC(=O)[C@H](CC(C)C)NC(=O)[C@@H](NC(=O)[C@H](CO)NC(=O)[C@H](Cc1ccc(O)cc1)NC(=O)[C@H](CC(=O)O)NC(=O)[C@H](CO)NC(=O)[C@@H](NC(=O)[C@](C)(Cc1ccccc1F)NC(=O)[C@@H](NC(=O)CNC(=O)[C@H](CCC(N)=O)NC(=O)C(C)(C)NC(=O)[C@@H](N)Cc1ccc(O)cc1)[C@@H](C)O)[C@@H](C)O)[C@@H](C)CC)C(=O)N[C@@H](CCC(=O)O)C(=O)N[C@@H](Cc1ccc(O)cc1)C(=O)N[C@@H](CC(C)C)C(=O)N[C@@H](CC(C)C)C(=O)N[C@@H](CCC(=O)O)C(=O)NCC(=O)NCC(=O)N1CCC[C@H]1C(=O)N[C@@H](CO)C(=O)N[C@@H](CO)C(=O)NCC(=O)N[C@@H](C)C(=O)N1CCC[C@H]1C(=O)N1CCC[C@H]1C(=O)N1CCC[C@H]1C(=O)N[C@@H](CO)C(N)=O
notes: Synthetic acylated peptide
Ki (human glucagon receptor [1]): 0.382 nM
cAMP EC50, in the presence of FBS and BSA (human glucagon receptor [2]): 1.76 nM
cAMP EC50, in the presence of FBS and BSA (human GLP-1 receptor [3]): 8.94 nM
cAMP EC50, in the presence of FBS and BSA (human GIP receptor [4]): 1.41 nM
Ki (human GIP receptor [5]): 0.0388 nM
Ki (human GLP-1 receptor [6]): 0.822 nM
cAMP EC50, in the presence of 0.1% casein (human glucagon receptor [7]): 0.0293 nM
cAMP EC50, in the presence of 0.1% casein (human GLP-1 receptor [8]): 0.115 nM
cAMP EC50, in the presence of 0.1% casein (human GIP receptor [9]): 0.0349 nM

B3: Example 1 (peptide)
peptide: YXQGTXTSDYSILLDKKAQXAFIEYLLEGGPSSGAPPPS
modifications: Aib at 2; αMeF at 6; K17 conjugated at the epsilon-amino group with (2-[2-(2-amino-ethoxy)-ethoxy]-acetyl)2-(γGlu)-CO-(CH2)18-CO2H; Aib at 20; C-terminal amide
notes: Synthetic acylated peptide
Ki (human glucagon receptor [1]): 0.955 nM
cAMP EC50, in the presence of FBS and BSA (human glucagon receptor [2]): 6.33 nM
cAMP EC50, in the presence of FBS and BSA (human GLP-1 receptor [3]): 12.6 nM
cAMP EC50, in the presence of FBS and BSA (human GIP receptor [4]): 1.82 nM
Ki (human GIP receptor [5]): 0.0278 nM
Ki (human GLP-1 receptor [6]): 2.51 nM
cAMP EC50, in the presence of 0.1% casein (human glucagon receptor [7]): 0.158 nM
cAMP EC50, in the presence of 0.1% casein (human GLP-1 receptor [8]): 0.112 nM
cAMP EC50, in the presence of 0.1% casein (human GIP receptor [9]): 0.0226 nM

B4: Example 2 (peptide)
peptide: YXQGTXTSDYSIXLDKKAQXAFIEYLLEGGPSSGAPPPS
modifications: Aib at 2; αMeF at 6; αMeL at 13; K17 conjugated at the epsilon-amino group with (2-[2-(2-amino-ethoxy)-ethoxy]-acetyl)2-(γGlu)-CO-(CH2)18-CO2H; Aib at 20; C-terminal amide
notes: Synthetic acylated peptide
Ki (human glucagon receptor [1]): 1.49 nM
cAMP EC50, in the presence of FBS and BSA (human glucagon receptor [2]): 4.75 nM
cAMP EC50, in the presence of FBS and BSA (human GLP-1 receptor [3]): 11.6 nM
cAMP EC50, in the presence of FBS and BSA (human GIP receptor [4]): 1.34 nM
Ki (human GIP receptor [5]): 0.0413 nM
Ki (human GLP-1 receptor [6]): 2.41 nM
cAMP EC50, in the presence of 0.1% casein (human glucagon receptor [7]): 0.096 nM
cAMP EC50, in the presence of 0.1% casein (human GLP-1 receptor [8]): 0.106 nM
cAMP EC50, in the presence of 0.1% casein (human GIP receptor [9]): 0.0329 nM

B5: Example 4 (peptide)
peptide: YXQGTXTSDYSILLDKKAQXAFIEYLLEGGPSSGAPPPS
modifications: Aib at 2; αMeF(2F) at 6; K17 conjugated at the epsilon-amino group with (2-[2-(2-amino-ethoxy)-ethoxy]-acetyl)-(γGlu)-CO-(CH2)18-CO2H; Aib at 20; C-terminal amide
notes: Synthetic acylated peptide
Ki (human glucagon receptor [1]): 0.637 nM
cAMP EC50, in the presence of FBS and BSA (human glucagon receptor [2]): 1.78 nM
cAMP EC50, in the presence of FBS and BSA (human GLP-1 receptor [3]): 10.6 nM
cAMP EC50, in the presence of FBS and BSA (human GIP receptor [4]): 1.37 nM
Ki (human GIP receptor [5]): 0.0832 nM
Ki (human GLP-1 receptor [6]): 1.21 nM
cAMP EC50, in the presence of 0.1% casein (human glucagon receptor [7]): 0.0296 nM
cAMP EC50, in the presence of 0.1% casein (human GLP-1 receptor [8]): 0.145 nM
cAMP EC50, in the presence of 0.1% casein (human GIP receptor [9]): 0.0321 nM

B6: Example 3 (peptide)
peptide: YXHGTXTSDYSILLDKKAQXAFIEYLLEGGPSSGAPPPS
modifications: Aib at 2; αMeF(2F) at 6; K17 conjugated at the epsilon-amino group with (2-[2-(2-amino-ethoxy)-ethoxy]-acetyl)2-(γGlu)-CO-(CH2)18-CO2H; Aib at 20; C-terminal amide
notes: Synthetic acylated peptide
Ki (human glucagon receptor [1]): 0.469 nM
cAMP EC50, in the presence of FBS and BSA (human glucagon receptor [2]): 3.46 nM
cAMP EC50, in the presence of FBS and BSA (human GLP-1 receptor [3]): 13.1 nM
cAMP EC50, in the presence of FBS and BSA (human GIP receptor [4]): 1.37 nM
Ki (human GIP receptor [5]): 0.0684 nM
Ki (human GLP-1 receptor [6]): 1.66 nM
cAMP EC50, in the presence of 0.1% casein (human glucagon receptor [7]): 0.0301 nM
cAMP EC50, in the presence of 0.1% casein (human GLP-1 receptor [8]): 0.104 nM
cAMP EC50, in the presence of 0.1% casein (human GIP receptor [9]): 0.0215 nM

From patent US20240190936A1 (Eli Lilly, published 2024)
